Data from patent publication USRE46585 (LABORATOIRE FRANCAIS DU FRACTIONNEMENT ET DES …, dated 2017).

Experiments:
FcRn-p3 fusion protein [1] = target: T1, FcRn-p3 fusion protein (human, UniProt P55899 24-297; P61769 21-119); assay: phage ELISA pH6
T1 construct: baculovirus expressed; coated on ELISA wells; not shown: amino terminal part of bacteriophage p3 protein and CVDE protein

FcRn-p3 fusion protein [2] = target: T1, FcRn-p3 fusion protein; assay: phage ELISA pH6 (est.)

T1 sequence (P55899 24-297, chain 1 of 2): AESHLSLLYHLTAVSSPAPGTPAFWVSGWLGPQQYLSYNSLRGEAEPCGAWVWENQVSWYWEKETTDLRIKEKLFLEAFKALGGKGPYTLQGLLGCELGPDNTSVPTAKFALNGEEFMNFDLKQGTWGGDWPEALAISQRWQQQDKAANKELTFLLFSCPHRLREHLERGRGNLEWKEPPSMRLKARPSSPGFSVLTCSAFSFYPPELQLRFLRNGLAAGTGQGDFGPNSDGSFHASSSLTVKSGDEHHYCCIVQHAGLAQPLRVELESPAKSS
T1 sequence (P61769 21-119, chain 2 of 2): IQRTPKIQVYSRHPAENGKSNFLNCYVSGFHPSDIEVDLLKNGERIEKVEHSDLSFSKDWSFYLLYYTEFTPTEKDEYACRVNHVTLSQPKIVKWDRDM

| Binder | Ratio/Fc-H (FcRn-p3 fusion protein [1]) [fold] | Ratio/FWT (FcRn-p3 fusion protein [2]) [fold] |
| --- | --- | --- |
| T3A_41 (other, EU numbering) CPPCPAPELLGGPSVFLFPPKPKDTLMISRTPEVTCVVEDVSHEDPEVKFNWYVDGVEVHNAKTKPREEQYNSTYRVVSVLPVLHQDWLNGKEYKCKVSNKALPAPIEKTISKAKGQPREPQVYTLPPSRDELTKNQVSLTCLVKGFYPSDIVVEWESNGQPENNYKTTPPVLDSDGSFFLYSKLTVDKSRWQQGNVFSCSVMHEALHNHYTQKSLSLSPGK | 2.3 | 7.2 |
| T4A_41 (other, EU numbering) CPPCPAPELLGGPSVRLFPPKPKDTLMISRTPEVTCVVEDVSHEDPEVKFNWYVDGVEVHNAKTKPREEQYNSTYRVVSVLPVLHQDWLNGKEYKCKVSNKALPAPIEKTISKAKGQPREPQVYTLPPSRDELTKNQVSLTCLVKGFYPSDIVVEWESNGQPENNYKTTPPVLDSDGSFFLYSKLTVDKSRWQQGNVFSCSVMHEALHNHYTQKSLSLSPGK | 2.5 | 8 |
| T5A_05 (other, EU numbering) CPPCPAPELLGGPSVFLFPPKPKDTLMISRTPEVTCVVEDVSHGDPEVKFNWYVDGVEVHNAKTKPREEQYNSTYRVVSVLTVLHQDWLNGKEYKCKVSNKALPAPIEKTISKAKGQPREPQVYTLPPSRDELTKNQVSLTCLVKGFYPSDIVVEWESNGQPENNYKTTPPVLDSDGSFFLYSKLTVDKSRWQQGTVFSCSVMHEALHSHYTQKSLSLSPGK | 2.7 | 8.8 |
| T4A_19 (other, EU numbering) CPPCPAPELLGGPSVFLFPPKPKDTLMISRTPEVTCVVVDVSHEDPEVKFNWYVDGVEVHNAKTKPREEQYNSTYRVVSVLPVLHQDWLNGKEYKCKVSNKALPAPIEKTISKAKGQPREPQVYTLPPSRDELTKNQVSLTCLVKGFYPSDIVVEWESNGQPENNYKTTPPVLDSDGSFFLYSKLTVDKSRWQQGNVFSCSVMHEALHSHYTQKSLSLSPGK | 3.6 | 11.4 |
| T4A_43 (other, EU numbering) CPPCPAPELLGGPSVFLFPPKPKDTLMISRTPEVTCVVVDVSHEDPEVKFNWYVDGVEVHNAKTKPREEQYNSTYRVVSVLTVLHQDWLNGKEYKCKVSNKALPAPVEKTISKAKGQPREPQVYTLPPSRDELTKNQVSLTCLVRGFYPSDIVVEWESNGQPENNYKTTPPVLDSDGSFFLYSKLTVDKSRWQQGNVFSCSVMHEALHSHYTQKSLSLSPGK | 2 | 6.3 |
| T3A_47 (other, EU numbering) CPPCPAPELLGGPSVFLFPPKPKDTLMISRTPEVTCVVVDVSHEDPEVKFNWYVDGVEVHNAKTKPREEQYNSTYRVVSVLPVLHQDWLNGKEYKCKVSNKALPAPIEKTISKAKGQPREPQVYTLPPSRDELTKNQVSLTCLVKGFYPSDITVEWESNGQPENNYKTTPPMLDSDGSFFLYSKLTVDKSRWQQGNVFSCSVMHEALHNHYTQKSLSLSPGK | 2 | 6.3 |
| T3A_43 (other, EU numbering) CPPCPAPELLGGPSVFLFPPKPKDTLMISRTPEVTCVVEDVSHEDPEVKFNWYVDGVEVHNAKTKPREEQYNSTYRVVSVLTVLHQDWLNGKEYKCKVSNKALPAPIEKTISKAKGQPRGPQVYTLPPSRDELTKNQVSLTCLVKGFYPSDIVVEWESNGQPENNYKTTPPVLDSDGSFFLYSKLTVDKSRWQQGNVFSCSVMHEALHNHYTQKSLSLSPGK | 1.4 | 4.5 |
| T5A_28 (other, EU numbering) CPPCPAPELLGGPSVLLFPPKPKDTLMISRTPEVTCVVEDVSHEDPEVKFNWYVDGVEVHNAKTKPREEQYNSTYRVVSVLTVLHQDWLNGKEYKCKVSNKALPAPIEKTISKAKGQPREPQVYTLPPSRDELTKNQVSLTCLVKGFYPSDIVVEWESNGQPENNYKTTPPVLDSDGSFFLYSKLTVDKSRWQQGNVFSCSVMHEALHYHYTQKSLSLSPGK | 2.5 | 7.9 |
| T4A_34 (other, EU numbering) CPPCPAPELLGGPSVFLFPPKPKDTLMISRTPEVTCVVEDVSHEDPEVKFNWYVDGVEVHNAKTKPREEQYNSTYRVVSVLTVLHQDWLNGKEYKCKVSNKALPAPIEKTISKAKGQPREPQVYTLPPSRDELTKNQVSLTCLVKGFYPSDIVVEWESNGQPENNYKTTPPVLDSDGSFFLYSKLTVDKSRWKQGNVFSCSVMHEALHNHYTQKSLSLSPGK | 1.3 | 4.3 |
| T4A_18 (other, EU numbering) CPPCPAPELLGGPSVFLFPPKPKDTLMISRTPEVTCVVVDVSHEDPEVKFNWYVDGVEVHNAKTKPREEQYNSTYRVVSVLTVLHQDWLDGKEYKCKVSNKALPAPIEKTISKAKGRPREPQVYTLPPSRDELTKNQVSLTCLVKGFYPSDIAVEWVSNGQPENNYKTTPPVLDSDGSFFLYSKLTVDKSRWQQGNVFSCSVMHEALHYHYTQKSLSLSPGK | 3 | 9.7 |
| T4A_45 (other, EU numbering) CPPCPAPELLGGPSVFLFPPKPKDTLMISRTPEVTCVVEDVSHEDPEVKFNWYVDGVEVHNAKTKPREEQYNSTYRVVSVLTVPHQDWLNGKEYKCKVSNKALPAPIEKTISKAKGQPREPQVYTLPPSRDELTKNQVSLTCLVKGFYPSDIAVEWESNGQPENNYKTTPLVLDSDGSFFLYSKLTVDKSRWQQGNVFSCSVMHEALHSHYTQKSLSLSPGK | 2.7 | 8.7 |
| T5A_29 (other, EU numbering) CPPCPAPELLGGPSVFLFPPKPKDTLMISRTPEVTCVVVDVSHEDPEVKFNWYVDGVEVHNAKTKPREEQYNSTYRVVSVLTVLHQDWLDGKEYKCKVSNKALPAPIEKTISKAKGQPREPQVYTLPPSRDELTKNQVSLTCLVKGFYPSDIAVEWVSNGQPENNYKTTPPVLDSDGSFFLYSKLTVDKSRWQQGNVFSCSVMHEALHYHYTQKSLSLSPGK | 1.9 | 6 |
| T4A_26 (other, EU numbering) CPPCPAPELLGGPSVFLFPPKPKDTLMISRTPEVTCVVEDVSHEDPEVKFNWYVDGVEVHNAKTKPREEQYNSTYRVVSVLPVLHQDWLNGKEYKCKVSNKALPAPIEKTISKAKGQPREPQVYTLPPSRDELTKNQVSLTCLVKGFYPSDIVVEWGSNGRPENNYKTTPPVLDSDGSFFLYSKLTVDKSRWQQGNVFSCSVMHEALHNHYTQKSLSLSPGK | 3.6 | 11.5 |
| T4A_39 (other, EU numbering) CPPCPAPELLGGPSVFLFPPKPKDTLMISRTPEVTCVVEDVSHEDPEVKFNWYVDGVEVHNAKTKPREEQYNSTYRVVSVLTVLHQDWLNGKEYKCKVSNKALPAPIEKTISKAKGQPREPQVYTLPPSRDELTKNQVSLTCLVKGFYPSDIVVEWESNGQPENNYKTTPLVLDSDGSFFLYSKLTVDKSRWQQGNVFSCSVMHEALHNHYTQKSLSLSPGK | 1.4 | 4.4 |
| T4A_32 (other, EU numbering) CPPCPAPELLGGPSVFLFPPKPKDTLMISRTPEVTCVVEDVSHEDPEVKFNWYVDGVEVHNAKTKPREEQYNSTYRVVSVLTVLHQDWLNGKEYKCKVSNKALPAPIEKTISKAKGQPREPQVYTLPPSRDELTKNQVSLTCLVKGFYPSDIVVEWESNGQPENNYKTTPPVLDSDGSFFLYSKLTVDKSRWQQGNVFSCSVMHEALRNHYTQKSLSLSPGK | 2.3 | 7.4 |
| T4A_44 (other, EU numbering) GPPCPAPELLGGPSVFLFPPKPKDTLMISRTPEVTCVVEDVSHEDPEVKFNWYVDGVEVHNAKTKPREEQYNSTYRVVSVLTVLHQDWLNGKEYKCKVSNKALPAPIEKTISKAKGQPREPQVYTLPPSRDELTKNQVSLTCLVKGFYPSDIVVEWESNGQPENNYKTTPPVLDSDGSLFLYSKLTVDKSRWQQGNVFSCSVMHEALHNHYTQKSLSLSPGK | 3.8 | 12 |
| T4A_04 (other, EU numbering) CPPCPAPELLGGPSVFLFPPKPKDTLMISRTPEVTCVVVDVSHEDPEVKFNWYVDGVEVHNAKTKPREEQYNSTYRVVSVLTVLHQDWLDGKEYKCKVSNKALPVPIEKTISKAKGQPREPQVYTLPPSRDELTKNQVSLTCLVKGFYPSDIAVEWVSNGQPENNYKTTPPVLDSDGSFFLYSKLTVDKSRWQQGNVFSCSVMHEALHYHYTQKSLSLSPGK | 3 | 9.7 |
| T5A_03 (other, EU numbering) CPPCPAPELLGGPSVFLFPPKPKDTLMISRTPEVTCVVEDVSHEDPEVKFNWYVDGVEVHNAKTKPREEQYNSTYRVVSVLTVLHQDWLNGKEYKCKVSNKALPAPIEKTISKAKGQPREPQVYTLPPSRDELTKNQVSLTCLVKGFYPSDIAVEWESNGQPENNYKTTPLVLDSDGSFFLYSKLTVDKSRWQQGNVFSCSVMHEALHSHYTQKSLSLSPGK | 2 | 6.4 |
| T4A_46 (other, EU numbering) CPPCTAPELLGGPSVFLFPPKPKDTLMISRTPEVTCVVVDVSHEDPEVKFNWYVDGVEVHNAKTKPREEQYNSTYRVVSVLTVLHQDWLNGKEYKCKVSNKALPAPIEKTISKAKGQPREPQVYTLPPSRDELTKNQVSLTCLVKGFYPSDIAVEWESNGQPEKNYKTTPPVLDSDGSFFLYSKLTVDKSRWQQGNVFSCSVMHEALHYHYTQKSLSLSPGK | 3.6 | 11.4 |
| T4A_31 (other, EU numbering) CPPCTAPELLGGPSVLLFPPKPKDTLMISRTPEVTCVVEDVSHEDPEVKFNWYVDGVEVHNAKTKPREEQYNSTYRVVSVLPVLHQDWLNGKEYKCKVSNKALPAPIEKTISKAKGQPREPQVYTLPPSRDELTKNQVSLTCLVKGFYPSDIVVEWESNGQPENNYKTTPPVLDSDGSFFLYSKLTVDKSRWQQGNVFSCSVMHEALHNHYTQKSLSLSPGK | 3.7 | 11.7 |
| T5A_37 (other, EU numbering) CPPCPAPELLGGPSVFLFPPKPKDTLMISRTPEVTCVVVDVSHEDPEVKFNWYVDGVEVHNAKTKPREEQYNGTYRVVSVLTVLHQDWLDGKEYKCKVSNKALPVPIEKTISKAKGQPREPQVYTLPPSRDELTKNQVSLTCLVKGFYPSDIAVEWESNGQPENNYKTTPPVLDSDGSFFLYSKLTVDKSRWQQGNVFSCSVMHEALHYHYTQKSLSLSPGK | 2.2 | 7 |
